Tests used:
[1] = target: recombinant Human Fc gamma RI/CD64 Protein (R&D systems, 1257-FC-050, CF) (human) (UniProt P12314); assay: ELISA; antibody coated, Fc gamma receptor titrated
[2] = target: recombinant Human Fc gamma RIIIA/CD16a Protein (R&D systems, 4325-FC-050; CF) (human) (UniProt P08637); assay: ELISA; antibody coated, Fc gamma receptor titrated
[3] = target: recombinant Human Fc gamma RIIB/CD32b Avi-tag Protein (R&D systems, AVI1875-050, CF) (human) (UniProt P31994); assay: ELISA; antibody coated, Fc gamma receptor titrated
Sequence of recombinant Human Fc gamma RIIB/CD32b Avi-tag Protein (R&D systems, AVI1875-050, CF) (human) (P31994 46-217 limits assumed): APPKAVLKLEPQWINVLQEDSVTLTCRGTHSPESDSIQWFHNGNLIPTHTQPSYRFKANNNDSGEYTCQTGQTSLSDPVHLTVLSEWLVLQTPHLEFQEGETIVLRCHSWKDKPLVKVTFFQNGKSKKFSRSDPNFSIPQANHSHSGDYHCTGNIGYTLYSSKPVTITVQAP

[4] = target: recombinant Human Fc gamma RIIA/CD32a (H167) Protein (R&D systems, 9595-CD-050, CF) (human) (UniProt P12318); assay: ELISA; antibody coated, Fc gamma receptor titrated
Sequence of recombinant Human Fc gamma RIIA/CD32a (H167) Protein (R&D systems, 9595-CD-050, CF) (human) (P12318 36-218 limits assumed): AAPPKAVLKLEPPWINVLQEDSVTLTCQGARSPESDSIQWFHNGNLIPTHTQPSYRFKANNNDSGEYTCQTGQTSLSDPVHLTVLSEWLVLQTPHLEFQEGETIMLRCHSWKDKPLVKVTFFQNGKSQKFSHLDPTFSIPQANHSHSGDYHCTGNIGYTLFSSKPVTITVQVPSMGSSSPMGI

[5] = target: recombinant biotinylated human FcRn (human) (UniProt P55899); assay: AlphaLISA competition at pH 6; competitor: human IgG on acceptor beads
[6] = target: recombinant biotinylated human FcRn (human) (UniProt P55899); assay: AlphaLISA competition at pH 6; test molecule titrated (x axis) against human IgG-conjugated acceptor beads for biotinylated human FcRn on streptavidin donor beads

Sequence of recombinant Human Fc gamma RI/CD64 Protein (R&D systems, 1257-FC-050, CF) (human) (P12314 16-288 limits assumed): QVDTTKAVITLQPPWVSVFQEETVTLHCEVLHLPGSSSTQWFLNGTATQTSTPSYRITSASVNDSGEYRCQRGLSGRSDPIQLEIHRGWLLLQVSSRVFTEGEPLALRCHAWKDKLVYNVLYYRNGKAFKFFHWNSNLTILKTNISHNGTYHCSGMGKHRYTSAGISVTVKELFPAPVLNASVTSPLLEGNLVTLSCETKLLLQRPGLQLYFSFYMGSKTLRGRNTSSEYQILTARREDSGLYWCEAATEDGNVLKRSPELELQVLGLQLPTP
Sequence of recombinant Human Fc gamma RIIIA/CD16a Protein (R&D systems, 4325-FC-050; CF) (human) (P08637 17-208 limits assumed): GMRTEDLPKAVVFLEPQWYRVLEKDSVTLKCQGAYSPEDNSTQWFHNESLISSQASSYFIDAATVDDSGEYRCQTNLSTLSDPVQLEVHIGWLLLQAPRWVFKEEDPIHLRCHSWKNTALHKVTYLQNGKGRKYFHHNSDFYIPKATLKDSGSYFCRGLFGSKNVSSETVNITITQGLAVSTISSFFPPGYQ

Kd [1]: 0.315 nM | Kd [2]: 1710 nM | Kd [3]: 2630 nM | Kd [4]: 1350 nM | Kd [5]: 6 nM | IC50 (read off the curve) [6]: 5 nM
Substance: LZM-009 (antibody)
